According to publication PMC5023729:

Columns and labels:
[1] = target: F380L/F382L double mutant G3BP1 (human) (UniProt Q13283)
[2] = target: FLAG-G3BP1 (human, wild type) (human) (UniProt Q13283)

Row | percentage of cells with SOD1 inclusions in which G3BP1 co-localizes (EGFP-tagged SOD1 and mCherry-tagged G3BP1 in G3BP1-null 293T cells) [1] [%] | percentage of cells with SOD1 inclusions in which G3BP1 co-localizes (EGFP-tagged SOD1 and mCherry-tagged G3BP1 in G3BP1-null 293T cells) [2] [%] | Substance
1 | 36.1 | 86.6 | A4V mutant SOD1-3xHA (natural protein)
2 | 14.7 | 49.1 | A4V/W32S double mutant SOD1 (natural protein)
